We go through one molecule from publication doi:10.1101/2021.02.17.431492 (bioRxiv, 2021).

The assay has as its target batCoV-SHC014 S-2P (spike ectodomain) (Bat SARS-like coronavirus RsSHC014, UniProt U5WLK5, stabilised). Nature of the assay: ELISA.

B1: DH1047 (cross-neutralizing RBD antibody), IgG (antibody, V domains shown)
VH: QVQLVQSGAEVKKPGASVQVSCQASANTFTNHYIHWVRQAPGQGLEWMGIIYPTGGNTIYAQGFQGRVTMTRDTSLNTIYLELSSLRSEDTAVYYCARDVRVDDSWSGYDLLSGGTYFDYWGQGTLVTVSS
VL: not shown
In the case of B1, the binding result is recorded as “binds”.
